From patent US20240043512A1 (IMCARE BIOTECH, published 2024)

T1: Peptide A (entire sequence of AS-SPIK without disulfide bonds) (human, cysteine side-groups inactivated, no disulfide bonds)
T1 construct: Synthesized by BioMatik
T1 peptide: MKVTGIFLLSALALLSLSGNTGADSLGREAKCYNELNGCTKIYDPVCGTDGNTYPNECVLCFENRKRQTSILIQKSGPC

B1: IM-E2 (antibody, V domains shown)
VH: QSVKESEGGLFKPTDTLTLTCTVSGFSLSAYAISWVRQAPGNGLEWIGAINSGGSAYYANWAKSRSTITRNTNLNTVTLKMTSLTAADTATYFCAREDIYDYGGAFDPWGPGTLVTVST
VL: AYDMTQTPASVEVTVGGTVTIKCQASQGISSYLSWYQQKPGQPPKLLIYAATTLVSGVSSRFKGSGSGTQFTLTISGVECADAATYYCQQDYTTSNVDNTFGGGTEVVVKG
notes: Rabbit monoclonal, Class II
B2: IM-C6 (antibody, V domains shown)
VH: QSVKESEGGLFKPTDALTLTCTVSGFSLSSYAISWVRQAPGSGLEWIGAINTYGGTYYASWAKSRSTITRNTNENTVTLKMTSLTAADTATYFCARDFDSDAYTSASGGMDWGPGTLVTVSS
VL: AYDMTQTPASVEVAVGGTVTIKCQASQSINNYLSWYQQIPGQPPKLLIYRASTLASGVSSRFKGSGSGTQFTLTISGVQCADAATYYCQQGYTSNVDNVFGGGTEVVVKG
notes: Rabbit monoclonal, Class II

Biological target: T1, Peptide A (entire sequence of AS-SPIK …)
Assay: ELISA, plate coated with peptide, HRP-labelled antibody
From the text: In order to further support the observation that epitopes specific to AS-SPIK and not NS-SPIK are conformation-dependent, additional tests to evaluate antibody binding to various synthesized peptides was completed. Four peptides, each containing sequences from different regions of AS-SPIK were synthesized by BioMatik (Wilmington DE). Peptide A contains the entire sequence of AS-SPIK, but without the formation of any disulfide bonds via the inactivation of cysteine side-groups. Peptide B contains the sequence of AS-SPIK fragment from M₁-G₅₀, Peptide C contains the sequence of AS-SPIK fragment from D₂₃-G₅₀ and Peptide D contains the sequence of AS-SPIK fragment from N₅₁-C₇₉. The binding activity of our monoclonal antibodies to AS-SPIK and the other peptides was tested by ELISA and results for IM-CA22 are shown in FIG. 6. Similar results were obtained from all other monoclonal anti-AS-SPIK antibodies we have developed, including IM-CA18, IM-CA46, IM-CA77, IM-A1, IM-A6, IM-B10, IM-C6, IM-D3, IM-D5, IM-E2, IM-F5, IM-G6 and IM-G7. Briefly, a 96-well plate was coated with Native AS-SPIK and different peptides, the plate then reacted with anti-AS-SPIK antibody (IM-CA22 herein) labeled with HRP. The OD450 nm was determined after incubating the plate with the substrate, TMB.
B1: no binding. B2: no binding.

What follows are binders tested against IM-CA22 (assay: competition ELISA: 0.5 µg/mL peptide added to prevent the binding of AS-SPIK with IM-CA22; inhibition rate from OD value with vs without peptide).
Chain of IM-CA22 (VH, as listed by the source, chain 1 of 2): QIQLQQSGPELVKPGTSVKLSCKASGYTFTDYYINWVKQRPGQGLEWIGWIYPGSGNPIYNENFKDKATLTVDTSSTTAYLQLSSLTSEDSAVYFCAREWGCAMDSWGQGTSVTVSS
Chain of IM-CA22 (VL, as listed by the source, chain 2 of 2): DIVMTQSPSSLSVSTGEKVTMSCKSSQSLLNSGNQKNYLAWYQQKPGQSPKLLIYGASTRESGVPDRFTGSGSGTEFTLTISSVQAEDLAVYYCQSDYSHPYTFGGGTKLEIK
For SLSGNTGADSLGR [SPIK2], the Inhibition % was 10%. SGNTGADSLGREA [SPIK1] gave an Inhibition % of 9%. With LLSLSGNTGADSL [SPIK3] the Inhibition % was 11%. LSLSGNTGA [SPIK8] showed an Inhibition % of 11%.
